Laboratory results: patent US20230398218A1 (published 2023)
Read-outs that look alike come from different tables or passages of the source.

Experiments:
HLA-A24.02 [1] = biological target: HLA-A24.02 (human); assay: pMHC-I complex dissociation at 37 C, radiolabeled b2m
HLA-A24.02 [2] = biological target: HLA-A24.02 (human); assay: competition with radiolabeled reference peptide on prepared MHC class I
HLA-B08.01 [3] = biological target: HLA-B08.01 (human); assay: pMHC-I complex dissociation at 37 C, radiolabeled b2m
HLA-B08.01 [4] = biological target: HLA-B08.01 (human); assay: as above; remark: listed apart in the source
HLA-A03.01 [5] = biological target: HLA-A03.01 (human); assay: as above
HLA-A01.01 [6] = biological target: T1, HLA-A01.01 (human); assay: as above
T1 construct: in the stability assay the heavy chain is biotinylated and b2m iodine-labeled

HLA-A03.01 [7] = biological target: HLA-A03.01 (human); assay: competition with radiolabeled reference peptide on prepared MHC class I
HLA-A11.01 = HLA-A11.01 (human); assay: as above
HLA-A01.01 [8] = biological target: T1, HLA-A01.01; assay: as above
HLA-B08.01 [9] = biological target: HLA-B08.01 (human); assay: as above
HLA-A02.01 [10] = biological target: HLA-A02.01 (human); assay: as above
HLA-A02.01 [11] = biological target: HLA-A02.01 (human); assay: pMHC-I complex dissociation at 37 C, radiolabeled b2m
[12] = biological target: T2, HLA-A*03:01 expressed in 293T or SW620 cells (human); assay: targeted MS/MS (PRM) of peptides eluted from HLA-peptide complexes, 293T cells
T2 construct: whole, on cells; HLA of cells from which peptides were eluted for MS/MS
Description: To assess whether antigens could be processed and presented from the larger polypeptide context, peptides eluted from HLA molecules isolated from cells expressing the genes of interest were analyzed by tandem mass spectrometry (MS/MS).
For analysis of presentation of RAS neoantigens, cell lines were utilized that have RAS mutations naturally or were lentivirally transduced to express the mutated RAS gene. HLA molecules were either isolated based on the natural expression of the cell lines or the cell lines were lentivirally transduced or transiently transfected to express the HLA of interest. […] Eluted peptides were then analyzed by targeted MS/MS with parallel reaction monitoring (PRM).

For EYMANGSLL (also called BTK, C481S peptide), the “Stability (half-life (hr.))” value (HLA-A24.02 [1]) was 343 min and the “Affinity” value (HLA-A24.02 [2]) was 4.96 nM.

MANGSLLNYL was tested, and the “Stability (half-life (hr.))” value (HLA-B08.01 [3]) was 0 h.

In the case of IMQLMPFGCL, the “Stability (half-life (hr.))” value (HLA-B08.01 [4]) is reported as 0 h.

MQLMPFGCLL was tested, and the “Stability (half-life (hr.))” value (HLA-B08.01 [4]) was 0 h.

MANGSLLNY (also called BTK, C481S peptide) was tested, and the “Stability (half-life (hr.))” value (HLA-A03.01 [5]) was 14.3 min, the “Stability (half-life (hr.))” value (HLA-A01.01 [6]) was 13 min and the “Affinity” value (HLA-A03.01 [7]) was 35.6 nM. For the same binder, the “Affinity” value (HLA-A11.01) was 536 nM and the “Affinity” value (HLA-A01.01 [8]) was 439 nM.

With YMANGSLLNY (also called BTK, C481S peptide) the “Stability (half-life (hr.))” value (HLA-A03.01 [5]) was 16.7 min, the “Stability (half-life (hr.))” value (HLA-A01.01 [6]) was 52 min and the “Affinity” value (HLA-A03.01 [7]) was 95.9 nM. For the same binder, the “Affinity” value (HLA-A11.01) was 974 nM and the “Affinity” value (HLA-A01.01 [8]) was 13.2 nM.

In the case of VQLIMQLMPF (also called VOLIMQLMPF), the “Stability (half-life (hr.))” value (HLA-B08.01 [4]) is reported as 0 h.

With SLLNYLREM the “Stability (half-life (hr.))” value (HLA-B08.01 [3]) was 0 h and the “Affinity” value (HLA-B08.01 [9]) was 960 nM.

With MQLMPFGCL the “Stability (half-life (hr.))” value (HLA-B08.01 [4]) was 0 h.

For QLIMQLMPF, the “Stability (half-life (hr.))” value (HLA-B08.01 [4]) was 0 h.

LIMQLMPFGC was tested, and the “Affinity” value (HLA-A02.01 [10]) was 132 nM and the “Stability (half-life (hr.))” value (HLA-A02.01 [11]) was 22.9 min.

B1: VVVGAVGVGK (peptide)
peptide: VVVGAVGVGK
notes: Endogenously processed RAS G12V peptide eluted from HLA-peptide complexes
B1: binds [12].
